From patent US8722637B2, “Methods and compositions of IG20 and DENN-SV splice variants” (The Board of Trustees of the University of Illinois, priority 2003, dated 2014)

B1: TRAIL: recombinant human TRAIL, TNF Related Apoptosis Inducing Ligand, purchased from Peprotech (protein, UniProt P50591 1-281, looked up)
Tumor necrosis factor ligand …: MAMMEVQGGPSLGQTCVLIVIFTVLLQSLCVAVTYVYFTNELKQMQDKYSKSGIACFLKEDDSYWDPNDEESMNSPCWQVKWQLRQLVRKMILRTSEETISTVQEKQQNISPLVRERGPQRVAAHITGTRGRSNTLSSPNSKNEKALGRKINSWESSRSGHSFLSNLHLRNGELVIHEKGFYYIYSQTYFRFQEEIKENTKNDKQMVQYIYKYTSYPDPILLMKSARNSCWSKDAEYGLYSIYQGGIFELKENDRIFVSVTNEHLIDMDHEASFFGAFLVG
B2: p35: baculovirus derived general caspase inhibitor (protein, UniProt P08160 1-299, looked up)
Early 35 kDa protein: MCVIFPVEIDVSQTIIRDCQVDKQTRELVYINKIMNTQLTKPVLMMFNISGPIRSVTRKNNNLRDRIKSKVDEQFDQLERDYSDQMDGFHDSIKYFKDEHYSVSCQNGSVLKSKFAKILKSHDYTDKKSIEAYEKYCLPKLVDERNDYYVAVCVLKPGFENGSNQVLSFEYNPIGNKVIVPFAHEINDTGLYEYDVVAYVDSVQFDGEQFEEFVQSLILPSSFKNSEKVLYYNEASKNKSMIYKALEFTTESSWGKSEKYNWKIFCNGFIYDKKSKVLYVKLHNVTSALNKNVILNTIK

Assays:
Format in all cases: cell-based, human
HeLa IG20 cells = test: TRAIL or TNF-α/cycloheximide induced apoptosis in HeLa IG20 cells (caspase activation, TMRE, Hoechst); conditions: 5 hours; TRAIL 100 ng/mL, or 10 ng/mL TNF-α and 10 μg/mL cycloheximide
Experimental: FIG. 13: IG20 transfected HeLa cells show increased apoptosis upon TRAIL treatment. HeLa-IG20 and control cells were treated for 5 hours with TRAIL at 100 ng/mL or with 10 ng/mL of TNF-α and 10 μg/mL of Cycloheximide and analyzed for apoptosis. A) Activation of caspases—cells were incubated for 10 minutes with FITC labeled general caspase inhibitor VAD FMK (Val-Ala-Asp-flouromethyl ketone) and analyzed by FACS. Numbers in the histogram indicate percentage of FITC positive cells. B) Mitochondrial Depolarization—Loss of the dye TMRE is indicative of mitochondrial depolarization and the numbers shown in the FACS histograms represent percentage of TMRE negative cells. All the above experiments were done in triplicates and results shown are representative histograms. […] D) Percentage of cells with condensed chromatin was calculated by counting 3 fields containing at least 200 cells each and error bars indicate mean±S.D.
Mitochondrial depolarization and chromatin condensation—2×10^5 HeLa IG20 and Vector control cells were plated into a 12-well culture dish and allowed to grow for 48 hours. […] Cells were assessed for loss of mitochondrial membrane potential by staining with tetramethylrhodamine ethyl ester (100 nm, Molecular Probes, Eugene, Oreg.) for 10 minutes, washed once with ice-cold PBS, collected and subjected to FACS analysis. […]

PA-1 cells = test: TRAIL-induced apoptosis in PA-1 cells (active caspase 3); conditions: TRAIL three hours
Experimental: FIG. 12: Effects of IG20 on PA-1 Cell Phenotypes. (A) Growth Rates. PA-1 and PA-1-IG20 cells were plated as described in Materials and Methods. Cells were then harvested and counted on the indicated days. Data are presented as mean+standard deviation of three plates for each sample. P values were <0.05 for all test groups. (B) TNFα-Induced Apoptosis. Cells were either untreated or treated with TNFα and cyclohexamide (CHX) for three hours, as described in Materials and Methods and then tested for percentages of cells with active caspase 3. (C) TRAIL-Induced Apoptosis. Cells were either untreated or treated with TRAIL for three hours and then tested for percentages of cells with active caspase 3, in the presence or absence of Z-VAD, an inhibitor of caspase activation. (D) Response to […] and TRAIL Treatment. PA-1-IG20 cells exposed to 6 and 12Gy of […] were plated as described in Materials and Methods. Twenty-four hours later, cells were either untreated or treated with TRAIL for 3 hours. All cells were then harvested and tested for levels of active caspase 3. (E) TNFα- and TRAIL-Induced NFκB Activation. Cells transfected with the NFκB-luciferase reporter were serum-deprived and then subjected to mock, TNFα, TRAIL or zVAD treatments for 5 hours. Cells were then lysed and tested for levels of luciferase activity. […]

caspase-3 = test: Caspase-3 activation in HeLa IG20 cells; conditions: 5 hours; TRAIL, or TNF-α and cycloheximide
Experimental: FIG. 15: IG20 Cells show increased specific activation of caspases upon TRAIL treatment A) Initiator caspases—Hela IG20 cells and control cells treated with TRAIL for 1H, were stained, with flourochrome-conjugated peptide inhibitors of specific active caspases as indicated, fixed and analyzed by FACS. B) Caspase-8 cleavage—IG20 HeLa cells and control cells were treated with TRAIL for either 1H or 3H, lysed and immunoblotted for the 10 kDa cleaved product of active caspase-8 using the 6B6 monoclonal antibody. […]
Caspase activation—To assess the general activation of caspases, cells were stained with FITC tagged caspase inhibitor Val-Ala-Asp-flouromethyl ketone Promega, Madison, Wis.) for 10 minutes at 37° C., washed and analyzed by FACS for percentage of FITC positive cells. The initiator caspases were analyzed by using carboxyflourescein labeled peptide flouromethlyketone inhibitors (FAM-peptide-FMK) directed against active caspase-8, 9 and 10 (APOLOGIX caspase detection kit, Cell Tech Inc., Minneapolis, Minn.). […] Cells were collected, washed once, resuspended in Perm/wash buffer and analyzed by FACS for PE positive population. […]

[1] = system: HeLa IG20 and control cells; test: Inhibition of TRAIL induced apoptosis by caspase inhibitors and DN-FADD (active caspase-3); conditions: control and HeLa IG20 cells transfected with inhibitor; TRAIL 100 ng/mL 5 hours
Experimental: FIG. 16. IG 20 enhanced apoptosis can be inhibited by caspase inhibitors and DN FADD HeLaIG20 and control cells (1×10^5 per well in a 6 well plate) were co-transfected with GFP-F vector along with either Crm A, p35 or DN-FADD in the ratio of 1:10. Twenty-four hours post transfection, TRAIL was added at a concentration of 100 ng/mL for 5 hours and both treated and untreated cells were stained with PE-conjugated anti-caspase3 antibodies and subjected to FACS analyses. The data were obtained from only GFP positive cells and represent 2 independent experiments carried out in duplicate.
Transfection with dominant negative FADD, CrmA and p35 constructs—Control vector and IG20 stably transfected HeLa cells were plated at 5×10^5 overnight and the dominant negative FADD, Crm A and p35 constructs were co-transfected (2 μg each) with farnesylated EGFP at a ratio of 1:5. Equal numbers of wells were co-transfected with an appropriate control vector along with EGFP-F at the same ratio. The transfected cells were left untreated or treated with the TRAIL, or with TNF-α and cycloheximide, for 5 hours and cells were collected and stained for active caspase-3 (anti caspase-3 antibody) and subjected to FACS analysis to detect active caspase-3 staining in GFP-positive cells.

| Molecule | Increase in cells undergoing apoptosis, HeLa IG20 versus control cells (HeLa IG20 cells) | TRAIL-induced apoptosis (PA-1 cells; PA-1-IG20 cells) | TRAIL-induced apoptosis (PA-1 cells; PA-1 cells) | Relative increase in caspase-3 activation, HeLa IG20 relative to control cells (caspase-3) | Effect on TRAIL induced apoptosis (active caspase-3) [1] |
| --- | --- | --- | --- | --- | --- |
| B1 | 3-3.5 fold | highly susceptible to TRAIL-induced apoptosis | almost completely resistant | five fold increase |  |
| B2 |  |  |  |  | abrogated TRAIL induced apoptosis |
